T1: At NF-YB2/NF-YC3 histone fold domain (HFD) dimer (A. thaliana, UniProt Q9FGJ3 24-116; Q9ZVL3 55-148)
T1 construct: Nuclear factor Y subunit B2 (AtNF-YB2), Arabidopsis thaliana, aa 24-116, histone fold domain; Nuclear factor Y subunit C3 (AtNF-YC3), Arabidopsis thaliana, aa 55-148, histone fold domain; Preformed heterodimer; the 6His tag was removed with thrombin before gel filtration; also called AtNF-YB2/AtNF-YC3; HFD subunits; source: E. coli, co-expressed, purified (IMAC, thrombin cleavage, gel …)
T1 sequence (looked up) 1: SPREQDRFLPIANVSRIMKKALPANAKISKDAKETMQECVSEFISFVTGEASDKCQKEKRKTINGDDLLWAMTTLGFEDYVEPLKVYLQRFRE
T1 sequence (looked up) 2: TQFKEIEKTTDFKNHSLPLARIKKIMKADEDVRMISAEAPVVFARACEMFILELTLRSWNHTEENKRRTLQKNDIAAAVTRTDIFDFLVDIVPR


Target: T1, At NF-YB2/NF-YC3 histone fold domain …
Assay: native gel or EMSA; NF-YA subunit (60-240 nM) with HFD dimer (30 nM) and Cy5-labelled 31 bp CAB2 CCAAT DNA probe (20 nM); 12 mM Tris-HCl pH 8.0, 50 mM NaCl, 50 mM KCl, 5 mM MgCl2, 30 °C 30 min; 6% polyacrylamide, 0.25X TBE; trimer read out as the shifted DNA complex
Conditions: both partners purified

| binding result | Binder |
| --- | --- |
| binds | AtNF-YA6-6His (aa 170-237) (domain or fragment, Nuclear factor Y subunit A6 (AtNF-YA6), Arabidopsis thaliana, aa 170-237, evolutionarily conserved domain; source: E. coli, purified (IMAC); not shown: His6, C-terminal, kept) not shown |
| binds | AtNF-YA2-6His (aa 134-207) (domain or fragment, Nuclear factor Y subunit A2 (AtNF-YA2), Arabidopsis thaliana, aa 134-207, evolutionarily conserved domain; source: E. coli, purified (IMAC); not shown: His6, C-terminal, kept) not shown |

— article PMC6843132, “The Plant NF-Y DNA Matrix In Vitro and In Vivo” (Plants, 2019)
